Patent US20230125550A1 (ARCELLX, published 2023)
Positions count from the first letter of the chain named. Values belong to the binder of their own block, whether it stands above or below them.

Columns and labels:
AFP p26 = target: T1, AFP p26 (human, UniProt P02771 381-609); experiment: phage ELISA, A450 target/A450 IgG1-Fc
T1 construct: The construct used is not described
T1 sequence: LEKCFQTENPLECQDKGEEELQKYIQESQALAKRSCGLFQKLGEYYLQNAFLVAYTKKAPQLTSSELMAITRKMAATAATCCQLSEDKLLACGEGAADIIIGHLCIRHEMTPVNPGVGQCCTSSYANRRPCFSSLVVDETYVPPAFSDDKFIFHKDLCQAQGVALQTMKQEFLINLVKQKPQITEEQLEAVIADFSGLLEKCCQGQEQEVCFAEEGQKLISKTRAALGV
Summary of the method: (§1)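 The ELISA ratio divides target absorbance by IgG1-Fc absorbance and averages this over all screened wells holding a given clone. Phage came from phagemid colonies picked from panning output and were rescued with VCSM13 helper phage in 96-well format. After coating with 1.3 microg/ml goat anti-human IgG1-Fc antibody, wells were loaded with 5 nM recombinant human target or IgG1-Fc, then with 50 microl phage diluted 5× in ELISA blocking buffer, and bound phage were read at 450 nm using HRP-conjugated anti-M13 antibody.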

[1] = target: T2, recombinant human CD123-Fc (human, UniProt P26951 19-305); experiment: phage ELISA, A450 target/A450 IgG1-Fc
T2 construct: not shown: Fc part of CD123-Fc
T2 sequence: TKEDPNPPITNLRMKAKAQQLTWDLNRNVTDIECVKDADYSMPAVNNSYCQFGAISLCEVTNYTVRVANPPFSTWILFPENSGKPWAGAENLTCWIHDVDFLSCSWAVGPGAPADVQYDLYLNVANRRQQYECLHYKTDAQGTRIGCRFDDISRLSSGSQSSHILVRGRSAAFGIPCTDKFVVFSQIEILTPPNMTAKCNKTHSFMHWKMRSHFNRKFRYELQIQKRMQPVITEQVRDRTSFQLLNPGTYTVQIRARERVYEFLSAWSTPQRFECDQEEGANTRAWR
Summary of the method: as §1

B2: SEQ ID NO 629 (designed binder)
chain: MGSWFEFPYRLEAIEERLYALGGSEAELAQFEQFIAWFEMDLQDYKGKGNPEVEALWFEANAIVEELDAYRHN
ELISA_avg [1]: 3.1 ratio

B5: SEQ ID NO 874 (designed binder)
chain: MGSWNNFKSSLASIKQVLEALGGSEAELAVFELQIAHFERELQYYKGKGNPEVEALRKEAAAIRDELQAYRHN
ELISA_avg (AFP p26): 24.1 ratio

B6: SEQ ID NO 871 (designed binder)
chain: MGSWHSFKQDLAYIKYLLEALGGSEAELAQFEELIAFFEYYLQTYKGKGNPEVEALRKEAAAIRDELQAYRHN
ELISA_avg (AFP p26): 25.6 ratio

B7: SEQ ID NO 631 (designed binder)
chain: MGSWVEFWDRLDAIEERLWALGGSEAELAEFEFMIAMFEQHLQEYKGKGNPEVEALIPEAGAIDKELTAYRHN
ELISA_avg [1]: 10 ratio

B9: SEQ ID NO 867 (designed binder)
chain: MGSWIAFKDHLAIIKQRLEALGGSEAELARFEFEIAWFEWMLQYYKGKGNPEVEALRKEAAAIRDELQAYRHN
ELISA_avg (AFP p26): 29.9 ratio

B10: SEQ ID NO 865 (designed binder)
chain: MGSWSVFKDDLAQIKDRLEALGGSEAELAQFELDIAWFEYVLQFYKGKGNPEVEALRKEAAAIRDELQAYRHN
ELISA_avg (AFP p26): 30.3 ratio

B12: SEQ ID NO 866 (designed binder)
chain: B10 chain with S5A, D10S, Q13H, R17V, Q30L, L33M, F44D
ELISA_avg (AFP p26): 24.1 ratio

B14: SEQ ID NO 873 (designed binder)
chain: MGSWDQFKNSLASIKRVLEALGGSEAELAIFEVKIAHFEHFLQQYKGKGNPEVEALRKEAAAIRDELQAYRHN
ELISA_avg (AFP p26): 15.6 ratio

B15: SEQ ID NO 870 (designed binder)
chain: MGSWKNFKLELALIKSKLEALGGSEAELAQFEADIAFFEWSLQWYKGKGNPEVEALRKEAAAIRDELQAYRHN
ELISA_avg (AFP p26): 20.6 ratio

B16: SEQ ID NO 632 (designed binder)
chain: MGSWDEFDARLWAIEERLWALGGSEAELAEFEFMIAAFEDVLQEYKGKGNPEVEALMGEANAIVMELDAYRHN
ELISA_avg [1]: 4.3 ratio

B18: SEQ ID NO 630 (designed binder)
chain: MGSWVEFYDRLEAIEIRLWALGGSEAELADFESFIAHFEDDLQAYKGKGNPEVEALMDEANAIVFELDAYRHN
ELISA_avg [1]: 4 ratio

Other lines, results leading:

ELISA_avg (AFP p26): 17.8 ratio
B1: SEQ ID NO 869 (designed binder)
chain: MGSWMVFKQDLAEIKANLEALGGSEAELADFEFAIAWFEYELQWYKGKGNPEVEALRKEAAAIRDELQAYRHN

ELISA_avg [1]: 10.6 ratio
B3: SEQ ID NO 627 (designed binder)
chain: MGSWYEFEQRLGAIEERLWALGGSEAELAAFEDIIAYFEYQLQSYKGKGNPEVEALDEEAWAIDDELWAYRHN

ELISA_avg [1]: 4.7 ratio
B4: SEQ ID NO 628 (designed binder)
chain: MGSWWEFEQRLDAIETRLWALGGSEAELAYFEHIIADFEDELQIYKGKGNPEVEALGWEAFAIDGELTAYRHN

ELISA_avg (AFP p26): 30.8 ratio
B8: SEQ ID NO 858 (designed binder)
chain: B9 chain with I5F, A6T, H10D, I13Q, Q16N, R30N, F33M, E34S, W40F

ELISA_avg (AFP p26): 27.9 ratio
B11: SEQ ID NO 863 (designed binder)
chain: MGSWEIFKDDLASIKKVLEALGGSEAELALFESDIAWFELMLQYYKGKGNPEVEALRKEAAAIRDELQAYRHN

ELISA_avg (AFP p26): 8.6 ratio
B13: SEQ ID NO 872 (designed binder)
chain: B14 chain with D5V, Q6V, N9S, S13Q, R16I, V17L, H40Q, F41E, Q44E

ELISA_avg [1]: 3.6 ratio
B17: SEQ ID NO 633 (designed binder)
chain: MGSWYEFWRRLDAIEERLWALGGSEAELAMFETDIAGFEWMLQLYKGKGNPEVEALEHEAWAINSELDAYRHN

ELISA_avg (AFP p26): 17.9 ratio
B19: SEQ ID NO 868 (designed binder)
chain: MGSWIHFKNDLAVIKDELEALGGSEAELARFEIMIAWFEDALQWYKGKGNPEVEALRKEAAAIRDELQAYRHN
